Assay results reported in the supplement of paper PMC12783771.
± gives the standard deviation of the averaged measurements.

B1: library; a variant is named by its letters at X, in order (parent)
chain: MNIQIGELAKRTACPVVTIRFYEQEGLLPPPGRSRGNFRLYGEEHVERLQFIRHCRSLDMPLSXVRTLLSYRKRPDQDCGEVXMLLDEHIRQVESRIGALLELXHHXVELREACSGARPAQSCGILQXLSXCVCXTRGTTAHXSD

Variants of: B1
Assay: sfGFP reporter fluorescence (15 h) (µM FITC); higher = higher leak
Conditions: library round: Round 3; ligand: none
Method: (§1)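 Cell-free biosensing: 1 µL Echo-assembled CFE reactions with linear PbrR variant templates (5 nM) and pPbrR-sfGFP reporter, with 1 µM Pb, 30 µM Zn or no ligand; endpoint sfGFP fluorescence after 15 h at 30 °C calibrated as µM FITC. Round 3 ML-predicted PbrR mutants; up to 3 biological replicates.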

Compared with DNKCMDAK P61N, DNRCIDDP M60L P61N is lower in sfGFP reporter fluorescence: 2.25 ± 0.34 for the first, 0.808 ± 0.044 for the second.

KNVCMDDP V16C and KNVCGDDP M60L P61S are within error of each other in sfGFP reporter fluorescence: 1.32 ± 0.056 for the first, 1.34 ± 0.11 for the second.

First: DNRCIDAK
Second: KNKCTDDP M60L P61N
The sfGFP reporter fluorescence of the first is lower: 0.674 ± 0.12 for the first, 2.34 ± 0.2 for the second.

DTKLGSDP Q121A H142A and DCKLGADY V16C H106A are within error of each other in sfGFP reporter fluorescence: 0.0408 ± 0.0014 for the first, 0.0446 ± 0.0041 for the second.

DNVLGDDY H54A H142C and DCVLGDDP V16C H54A are within error of each other in sfGFP reporter fluorescence: 0.0421 ± 0.0015 for the first, 0.0426 ± 0.0029 for the second.

Compared with KNVLGDDR I90C H106A, DNVCMDDP Y41F P61N is higher in sfGFP reporter fluorescence: 0.0676 ± 0.0026 for the first, 0.828 ± 0.023 for the second.

Going from DTKLGAPW Q121A to NNKCMDDP M60L P61N, the sfGFP reporter fluorescence rises from 0.0438 ± 0.0019 to 2.66 ± 0.24.

Going from DTKLGSRP V108L to LNKCGAAP H54C C55P H106L, the sfGFP reporter fluorescence rises from 0.0395 ± 0.0015 to 0.0467 ± 0.0041.

Compared with KIVCMDDP, KNICMDDP M60L is higher in sfGFP reporter fluorescence: 0.424 ± 0.064 for the first, 2.28 ± 0.1 for the second.

Going from DNRLHCDL E109L to DNRCMDAK, the sfGFP reporter fluorescence rises from 0.0447 ± 0.0052 to 1.49 ± 0.11.

Going from DSKLGSPP V108L to DNRCMDAK D87E, the sfGFP reporter fluorescence rises from 0.0407 ± 0.0012 to 1.06 ± 0.069.

Going from ENKCMDAK to KTVLIDDP P61T, the sfGFP reporter fluorescence falls from 0.33 ± 0.045 to 0.0467 ± 0.002.

Compared with DTKLGCDP V108L Q121A, LILCGAAP V16C H54C C55P H106A is higher in sfGFP reporter fluorescence: 0.043 ± 0.0018 for the first, 0.0465 ± 0.0014 for the second.

Going from DNKCGSAY to DNKCMDAK G124A, the sfGFP reporter fluorescence falls from 0.873 ± 0.033 to 0.531 ± 0.049.

First: TTKCGDRP
Second: DNKLGAPY V133A
The sfGFP reporter fluorescence of the first is higher: 1.83 ± 0.057 for the first, 0.0571 ± 0.00067 for the second.

Compared with KNKCMDDP M60L P61D, KNVLMDDP M60L P61N is lower in sfGFP reporter fluorescence: 3.01 ± 0.32 for the first, 0.606 ± 0.027 for the second.

Compared with DCKVGDDP V82I L85M, DTKCIDAK is higher in sfGFP reporter fluorescence: 0.0458 ± 0.0022 for the first, 0.305 ± 0.035 for the second.

First: DTKLGHPY Q121A
Second: KNVCMDDP M60L
The sfGFP reporter fluorescence of the first is lower: 0.0423 ± 0.0015 for the first, 3.21 ± 0.26 for the second.

Going from DNKLHAPW L101V to DSKLGHPY, the sfGFP reporter fluorescence falls from 0.06686 ± 0.00034 to 0.0395 ± 0.00071.

Compared with KNKCSDDP M60L P61N, DTKLGSPP V108L is lower in sfGFP reporter fluorescence: 2.09 ± 0.17 for the first, 0.0404 ± 0.0007 for the second.

Going from DTKLGDAL Q121A to KNVCIDDP M60L P61N, the sfGFP reporter fluorescence rises from 0.04099 ± 0.00034 to 0.453 ± 0.036.

KIVLGDDR L62I and LIKCGAAP H54C C55P H106L are within error of each other in sfGFP reporter fluorescence: 0.0483 ± 0.0021 for the first, 0.0448 ± 0.0034 for the second.

Variants of: B1
Assay: sfGFP reporter fluorescence (15 h) (µM FITC); higher = stronger transcriptional activation
Conditions: library round: Round 3; ligand: 1 µM Pb
Method: as §1

First: DNKCMDAK P61N
Second: DNRCIDDP M60L P61N
The sfGFP reporter fluorescence of the first is higher: 2.76 ± 0.33 for the first, 1.53 ± 0.025 for the second.

KNVCMDDP V16C and KNVCGDDP M60L P61S are within error of each other in sfGFP reporter fluorescence: 3.46 ± 0.1 for the first, 3.29 ± 0.12 for the second.

Going from DNRCIDAK to KNKCTDDP M60L P61N, the sfGFP reporter fluorescence rises from 1.93 ± 0.22 to 3.48 ± 0.11.

Compared with DTKLGSDP Q121A H142A, DCKLGADY V16C H106A is higher in sfGFP reporter fluorescence: 0.106 ± 0.0044 for the first, 0.232 ± 0.014 for the second.

Going from DNVLGDDY H54A H142C to DCVLGDDP V16C H54A, the sfGFP reporter fluorescence rises from 0.0519 ± 0.0017 to 0.127 ± 0.0026.

Compared with KNVLGDDR I90C H106A, DNVCMDDP Y41F P61N is higher in sfGFP reporter fluorescence: 0.502 ± 0.032 for the first, 2.98 ± 0.34 for the second.

Going from DTKLGAPW Q121A to NNKCMDDP M60L P61N, the sfGFP reporter fluorescence rises from 0.216 ± 0.0053 to 3.55 ± 0.13.

Compared with DTKLGSRP V108L, LNKCGAAP H54C C55P H106L is lower in sfGFP reporter fluorescence: 0.117 ± 0.0088 for the first, 0.044 ± 0.0032 for the second.

First: KIVCMDDP
Second: KNICMDDP M60L
The sfGFP reporter fluorescence of the first is lower: 1.96 ± 0.25 for the first, 3.14 ± 0.26 for the second.

Compared with DNRLHCDL E109L, DNRCMDAK is higher in sfGFP reporter fluorescence: 0.094 ± 0.0039 for the first, 2.51 ± 0.053 for the second.

First: DSKLGSPP V108L
Second: DNRCMDAK D87E
The sfGFP reporter fluorescence of the first is lower: 0.121 ± 0.0045 for the first, 2.46 ± 0.12 for the second.

Compared with ENKCMDAK, KTVLIDDP P61T is lower in sfGFP reporter fluorescence: 1.43 ± 0.15 for the first, 0.106 ± 0.0053 for the second.

Compared with DTKLGCDP V108L Q121A, LILCGAAP V16C H54C C55P H106A is lower in sfGFP reporter fluorescence: 0.117 ± 0.0039 for the first, 0.0436 ± 0.0014 for the second.

DNKCGSAY and DNKCMDAK G124A are within error of each other in sfGFP reporter fluorescence: 2.1 ± 0.24 for the first, 2.11 ± 0.15 for the second.

Compared with TTKCGDRP, DNKLGAPY V133A is lower in sfGFP reporter fluorescence: 2.37 ± 0.091 for the first, 0.174 ± 0.0037 for the second.

First: KNKCMDDP M60L P61D
Second: KNVLMDDP M60L P61N
The sfGFP reporter fluorescence of the first is higher: 3.17 ± 0.26 for the first, 1.64 ± 0.097 for the second.

First: DCKVGDDP V82I L85M
Second: DTKCIDAK
The sfGFP reporter fluorescence of the first is lower: 0.329 ± 0.034 for the first, 1.87 ± 0.27 for the second.

Going from DTKLGHPY Q121A to KNVCMDDP M60L, the sfGFP reporter fluorescence rises from 0.206 ± 0.019 to 3.58 ± 0.098.

First: DNKLHAPW L101V
Second: DSKLGHPY
The sfGFP reporter fluorescence of the first is higher: 0.307 ± 0.028 for the first, 0.112 ± 0.007 for the second.

Going from KNKCSDDP M60L P61N to DTKLGSPP V108L, the sfGFP reporter fluorescence falls from 3.3 ± 0.17 to 0.127 ± 0.0092.

First: DTKLGDAL Q121A
Second: KNVCIDDP M60L P61N
The sfGFP reporter fluorescence of the first is lower: 0.104 ± 0.004 for the first, 1.86 ± 0.087 for the second.

First: KIVLGDDR L62I
Second: LIKCGAAP H54C C55P H106L
The sfGFP reporter fluorescence of the first is higher: 0.453 ± 0.018 for the first, 0.0419 ± 0.0013 for the second.

Same assay, conditions: library round: Round 3; ligand: 30 µM Zn

Going from DNKCMDAK P61N to DNRCIDDP M60L P61N, the sfGFP reporter fluorescence falls from 3.11 ± 0.2 to 2.29 ± 0.32.

Going from KNVCMDDP V16C to KNVCGDDP M60L P61S, the sfGFP reporter fluorescence falls from 3.28 ± 0.18 to 2.58 ± 0.36.

Going from DNRCIDAK to KNKCTDDP M60L P61N, the sfGFP reporter fluorescence rises from 2.51 ± 0.34 to 3.2 ± 0.18.

Going from DTKLGSDP Q121A H142A to DCKLGADY V16C H106A, the sfGFP reporter fluorescence falls from 0.472 ± 0.015 to 0.0501 ± 0.00089.

First: DNVLGDDY H54A H142C
Second: DCVLGDDP V16C H54A
The sfGFP reporter fluorescence of the first is higher: 0.136 ± 0.0031 for the first, 0.0484 ± 0.0029 for the second.

First: KNVLGDDR I90C H106A
Second: DNVCMDDP Y41F P61N
The sfGFP reporter fluorescence of the first is lower: 0.74 ± 0.058 for the first, 2.92 ± 0.049 for the second.

Going from DTKLGAPW Q121A to NNKCMDDP M60L P61N, the sfGFP reporter fluorescence rises from 0.277 ± 0.013 to 3.4 ± 0.14.

Going from DTKLGSRP V108L to LNKCGAAP H54C C55P H106L, the sfGFP reporter fluorescence falls from 0.28 ± 0.012 to 0.0477 ± 0.0034.

Compared with KIVCMDDP, KNICMDDP M60L is higher in sfGFP reporter fluorescence: 1.78 ± 0.059 for the first, 3.216 ± 0.027 for the second.

First: DNRLHCDL E109L
Second: DNRCMDAK
The sfGFP reporter fluorescence of the first is lower: 0.23 ± 0.0064 for the first, 2.61 ± 0.05 for the second.

Going from DSKLGSPP V108L to DNRCMDAK D87E, the sfGFP reporter fluorescence rises from 0.247 ± 0.0044 to 2.56 ± 0.13.

First: ENKCMDAK
Second: KTVLIDDP P61T
The sfGFP reporter fluorescence of the first is higher: 2.44 ± 0.15 for the first, 0.251 ± 0.023 for the second.

First: DTKLGCDP V108L Q121A
Second: LILCGAAP V16C H54C C55P H106A
The sfGFP reporter fluorescence of the first is higher: 0.116 ± 0.0027 for the first, 0.0502 ± 0.002 for the second.

DNKCGSAY and DNKCMDAK G124A are within error of each other in sfGFP reporter fluorescence: 2.35 ± 0.2 for the first, 2.65 ± 0.21 for the second.

Compared with TTKCGDRP, DNKLGAPY V133A is lower in sfGFP reporter fluorescence: 2.74 ± 0.22 for the first, 0.728 ± 0.029 for the second.

Going from KNKCMDDP M60L P61D to KNVLMDDP M60L P61N, the sfGFP reporter fluorescence falls from 3.28 ± 0.24 to 2.45 ± 0.11.

Going from DCKVGDDP V82I L85M to DTKCIDAK, the sfGFP reporter fluorescence rises from 0.128 ± 0.0044 to 2.86 ± 0.33.

Going from DTKLGHPY Q121A to KNVCMDDP M60L, the sfGFP reporter fluorescence rises from 0.289 ± 0.021 to 3.18 ± 0.16.

Going from DNKLHAPW L101V to DSKLGHPY, the sfGFP reporter fluorescence falls from 1.11 ± 0.06 to 0.234 ± 0.033.

Going from KNKCSDDP M60L P61N to DTKLGSPP V108L, the sfGFP reporter fluorescence falls from 3.18 ± 0.21 to 0.186 ± 0.0066.

Compared with DTKLGDAL Q121A, KNVCIDDP M60L P61N is higher in sfGFP reporter fluorescence: 0.329 ± 0.015 for the first, 2.32 ± 0.15 for the second.

Going from KIVLGDDR L62I to LIKCGAAP H54C C55P H106L, the sfGFP reporter fluorescence falls from 0.09962 ± 0.00071 to 0.0486 ± 0.0017.
